Measured values: PMC7457537

Tests used:
[1] = molecular target: HIV-1 integrase with methionine preceding the N-terminal phenylalanine (IN MF), full-length (HIV-1 (NL4-3)); assay: AUC; sedimentation equilibrium, 4 °C, same data and buffer as the monomer-dimer fit; attempted fit of a dimer-tetramer equilibrium: tetramer to dimers
[2] = molecular target: HIV-1 integrase with methionine preceding the N-terminal phenylalanine (IN MF), full-length (HIV-1 (NL4-3)); assay: AUC; sedimentation velocity, 25 °C, 40,000 rpm, 20 mM HEPES-NaOH pH 7.5, 1 M NaCl, 7 mM CHAPS, 10 µM ZnOAc2, 10 µM β-mercaptoethanol; c(s) model in SEDFIT; self-association
[3] = molecular target: HIV-1 integrase with methionine preceding the N-terminal phenylalanine (IN MF), full-length (HIV-1 (NL4-3)); assay: AUC; sedimentation equilibrium, 4 °C, 20 mM HEPES-NaOH pH 7.5, 1 M NaCl, 7 mM CHAPS, 10 µM ZnOAc2, 10 µM β-mercaptoethanol; global fit at 16, 20, 24 krpm (SEDPHAT); dimer to monomers
[4] = molecular target: HIV-1 integrase with methionine preceding the N-terminal phenylalanine (IN MF), full-length (HIV-1 (NL4-3)); assay: SEC-MALS; Superdex 200 10/300, 25 °C, 20 mM HEPES-NaOH pH 7.5, 500 mM-1 M NaCl, 7 mM CHAPS, 10 µM ZnOAc2, 10 µM β-mercaptoethanol; eluted concentrations ~8-10 µM (IN 1F, IN MF); self-association

For “HIV-1 integrase with methionine preceding the N-terminal phenylalanine (IN MF), full-length (enzyme)”, which Kd [1] is on record?
Its Kd is greater than 1 mM.

And the stoichiometry N [2]?
The stoichiometry N was 2.

And the Kd [3]?
The Kd was 127 µM.

And the stoichiometry N [4]?
The stoichiometry N was 2.
